The assay has as its target T1, human NPR1 (hNPR1) with a C-term myc and FLAG tag, stably expressed on HEK293 cells (human, UniProt P16066 33-1061).
T1 sequence: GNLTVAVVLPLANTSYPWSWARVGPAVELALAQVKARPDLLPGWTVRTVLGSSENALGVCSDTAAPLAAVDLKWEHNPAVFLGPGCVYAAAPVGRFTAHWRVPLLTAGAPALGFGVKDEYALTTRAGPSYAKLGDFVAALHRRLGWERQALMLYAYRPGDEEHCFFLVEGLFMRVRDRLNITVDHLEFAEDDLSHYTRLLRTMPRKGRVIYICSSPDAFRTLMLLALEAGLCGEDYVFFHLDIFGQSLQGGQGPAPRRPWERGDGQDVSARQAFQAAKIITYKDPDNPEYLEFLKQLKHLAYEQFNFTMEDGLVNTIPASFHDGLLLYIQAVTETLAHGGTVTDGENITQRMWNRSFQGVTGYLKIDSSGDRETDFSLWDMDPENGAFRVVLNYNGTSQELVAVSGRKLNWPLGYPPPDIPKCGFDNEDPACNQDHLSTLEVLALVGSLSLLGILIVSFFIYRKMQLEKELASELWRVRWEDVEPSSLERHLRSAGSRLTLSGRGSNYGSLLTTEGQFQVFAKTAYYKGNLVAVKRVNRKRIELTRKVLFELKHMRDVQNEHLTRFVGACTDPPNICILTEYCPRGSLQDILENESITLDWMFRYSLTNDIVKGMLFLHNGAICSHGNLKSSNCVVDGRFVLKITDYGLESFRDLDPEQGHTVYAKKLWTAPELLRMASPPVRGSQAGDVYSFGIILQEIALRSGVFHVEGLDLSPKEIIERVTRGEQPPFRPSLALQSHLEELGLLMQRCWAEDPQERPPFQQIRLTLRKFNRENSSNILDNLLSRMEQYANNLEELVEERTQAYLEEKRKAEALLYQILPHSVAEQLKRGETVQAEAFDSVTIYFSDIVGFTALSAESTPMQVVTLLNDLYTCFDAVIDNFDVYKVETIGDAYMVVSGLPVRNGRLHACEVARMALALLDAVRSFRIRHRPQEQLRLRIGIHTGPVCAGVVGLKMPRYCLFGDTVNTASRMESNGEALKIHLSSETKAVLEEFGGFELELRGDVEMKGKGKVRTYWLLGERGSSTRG
In words: cell-based or functional assay.

B1: R5381 (antibody, V domains shown)
VH: QVQLVQSGAEVKKPGASVTVSCKASGYTFTDYYMHWVRQAPGQGLEWMGWIKPNSGGTNSAQRFQGRITMTWDTSISTAYMELSRLRSDDTAVYYCSRGGPVMNYYYYYGMDVWGQGTTVTVSS
VL: NIQMTQSPSSLSASVGDRVTITCRASQSIDSYLNWYQQKPGKAPKLLIYVASSLQSGVPSRFSGSGSGKDFTLTISSLQPEDFATYYCQQSYSIPTFGQGTRLEIKR
Regarding B1, the “cGMP accumulation (HTRF) EC50, no ligand” value amounted to 31.2 nM; the “cGMP accumulation (HTRF) EC50, with 40 pM ANP” value amounted to 2.07e-08 M; the “cGMP accumulation (HTRF) EC50, with 80 pM BNP” value amounted to 1.78e-09 M.
